Data published in the supplement of paper PMC10724198.
± gives the standard deviation of the averaged measurements.

Test system: Saccharomyces cerevisiae
Assay: protein stability index of tFT-peptide fusion (C-terminal peptide) (PSI (0-1 scale)); higher = more stable (slower turnover)
Conditions: genetic background: wild type; temperature: 30 C
Description: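 Multiplexed protein stability (MPS) profiling in S. cerevisiae. Random 12-aa peptides (tFT-X12 library) are fused to the C-terminus of a sfGFP-mCherry tandem fluorescent timer, after mCherry and a GGGS linker. Cells are FACS-sorted into 8 mCherry/sfGFP bins and deep-sequenced. The protein stability index (PSI) is the read-weighted bin average, scaled from 0 (unstable) to 1 (stable). Only peptides with >10 reads are reported; cells were grown at 30 °C in SC-His with glucose.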
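Further: PSI is a weighted mean of sequencing reads over stability bins, variants kept only with over 10 reads, mCherry proximal and sfGFP distal, peptide attached via GGGS linker.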

| Sequence | protein stability index |
| --- | --- |
| ILLFSLKHRSDH | 0.63 ± 0.018 |
| ILLLKFSKLNKK | 0.66 ± 0.033 |
| ILLPLRHHSFSD | 0.643 ± 0.0087 |
| ILLSLSRWGMAG | 0.723 ± 0.024 |
| ILLYSPFGPPSS | 0.673 ± 0.026 |
| ILPPPYVPARLS | 0.577 ± 0.054 |
| ILSDRVLRVGVK | 0.65502 ± 0.00049 |
| ILSWSGLSTGLE | 0.876 ± 0.065 |
| ILTALRNQPFLM | 0.669 ± 0.033 |
| ILTPPPLPDLLP | 0.706 ± 0.019 |
| IMKRNKKIKREI | 0.711 ± 0.024 |
| INKKKQRIRGKN | 0.69 ± 0.064 |
| INLRENETKQRN | 0.673 ± 0.038 |
| INPKSGIVVKFR | 0.679 ± 0.04 |
| IPDRSLFPWTGR | 0.661 ± 0.012 |
| IPFEPSGPFMRN | 0.7362 ± 0.007 |
| IPLPPHLTPPST | 0.677 ± 0.086 |
| IPPDAFAQLTYS | 0.733 ± 0.0093 |
| IPVGTVGTLNAA | 0.66 ± 0.057 |
| IQRLGTKNTNRI | 0.647 ± 0.039 |
| IRLLNKAACVTM | 0.742 ± 0.04 |
| IRLSCGRVGGVV | 0.648 ± 0.012 |
| IRLYGQATFRWE | 0.625 ± 0.086 |
| IRNDERHSKNQD | 0.74 ± 0.062 |
| IRNGYVGNYKGN | 0.744 ± 0.025 |

| Sequence | protein stability index |
| --- | --- |
| IRQRSRGGLSSD | 0.684 ± 0.021 |
| IRYARSYDMSEC | 0.654 ± 0.04 |
| ISCWHGYAKESS | 0.671 ± 0.039 |
| ISIVKENSSLTC | 0.6552 ± 0.0053 |
| ISPCCGVPWLLR | 0.708 ± 0.025 |
| ISRFSLTFPFHR | 0.6947 ± 0.0039 |
| ISRSLVDHQARP | 0.695 ± 0.045 |
| ISVLSIFVDSFV | 0.528 ± 0.0062 |
| ISWCPRHPFSSD | 0.752 ± 0.014 |
| ISWERIHEKKRK | 0.784 ± 0.096 |
| ISYGSGCGIVNH | 0.683 ± 0.054 |
| ISYYDVYLSFLF | 0.745 ± 0.13 |
| ITGPPTGSPRYR | 0.588 ± 0.23 |
| ITIVVATRPPGA | 0.617 ± 0.013 |
| ITLFPKGLRANK | 0.686 ± 0.045 |
| ITLLYFAGVSVL | 0.513 ± 0.0074 |
| ITRATPILSYKK | 0.677 ± 0.09 |
| ITSLQAPPEYLH | 0.6922 ± 0.0062 |
| ITTVRGALLARY | 0.666 ± 0.068 |
| ITYRTSGMGIRA | 0.6182 ± 0.0028 |
| IVALDGWPGVEA | 0.7226 ± 0.0055 |
| IVCLWVAGHFGL | 0.602 ± 0.014 |
| IVHIKRVLGNAA | 0.636 ± 0.012 |
| IVPVCFVTDQHA | 0.6605 ± 0.00071 |
| IWGGAVQARFKG | 0.733 ± 0.14 |

| Sequence | protein stability index |
| --- | --- |
| KADLKTKNMCRL | 0.765 ± 0.017 |
| KAEKMRARQKED | 0.657 ± 0.011 |
| KAGKFLVGKSLS | 0.657 ± 0.026 |
| KCPPQKRPTLIQ | 0.679 ± 0.098 |
| KDEVESGRGLIS | 0.633 ± 0.044 |
| KDRGEIKIRTKN | 0.696 ± 0.039 |
| KDTDTAHETERK | 0.697 ± 0.033 |
| KDTHNEKKGTPS | 0.686 ± 0.082 |
| KECTWRQGKYNA | 0.752 ± 0.089 |
| KEEKNEENNKKE | 0.641 ± 0.033 |
| KEIRNNEKKKKK | 0.657 ± 0.013 |
| KEKIGIQIKKKR | 0.675 ± 0.047 |
| KELQKKRIKKKN | 0.733 ± 0.078 |
| KEQKNNRKVTKK | 0.715 ± 0.046 |
| KERQERGKRKII | 0.536 ± 0.035 |
| KGDKIEFVENKY | 0.641 ± 0.022 |
| KGDPKLTKKKPL | 0.613 ± 0.077 |
| KGKRQNIERCRK | 0.644 ± 0.099 |
| KGVEVPGERMVG | 0.742 ± 0.021 |
| KGVLTKRAVPST | 0.703 ± 0.025 |
| KHGLSDRAPLPK | 0.698 ± 0.05 |
| KHGSKEAHKNEN | 0.695 ± 0.015 |
| KHKKKKKEYKKK | 0.729 ± 0.03 |
| KHKRDRNIYKVT | 0.679 ± 0.026 |
| KHRGAQRSRARH | 0.645 ± 0.012 |

| Sequence | protein stability index |
| --- | --- |
| KHSRKPTHKKLI | 0.69 ± 0.016 |
| KHTKRIRLYKTK | 0.7831 ± 0.0034 |
| KIGNDQNVEDRK | 0.756 ± 0.059 |
| KIIARMEKGKEI | 0.771 ± 0.042 |
| KIKEKNEKRELI | 0.686 ± 0.11 |
| KIKGVKEEIVKM | 0.686 ± 0.029 |
| KIKKKKKNKTNR | 0.676 ± 0.014 |
| KIKKKRGKTKKK | 0.708 ± 0.018 |
| KIKKNKNKKKKS | 0.686 ± 0.009 |
| KIKNYNSGKIKK | 0.716 ± 0.024 |
| KIKTNLRQKTKN | 0.654 ± 0.016 |
| KIKVKTKKWNIK | 0.681 ± 0.018 |
| KILRRIFRNGGA | 0.615 ± 0.062 |
| KIMKINIYQKKR | 0.691 ± 0.028 |
| KINQDKKKGKKK | 0.686 ± 0.079 |
| KIQGGKQKTVDD | 0.824 ± 0.25 |
| KIYESPLLEIKI | 0.617 ± 0.032 |
| KKEDNKEKYRKK | 0.667 ± 0.013 |
| KKEKDKTINKQK | 0.697 ± 0.067 |
| KKEKEKRRDRWR | 0.661 ± 0.014 |
| KKENKSKKIINR | 0.568 ± 0.028 |
| KKGKIKKFIIKK | 0.694 ± 0.17 |
| KKGPANEWKRGE | 0.685 ± 0.081 |
| KKGRGEGTKKKR | 0.602 ± 0.047 |
| KKGYKTVETRIS | 0.69 ± 0.082 |

| Sequence | protein stability index |
| --- | --- |
| KKINKEINKEKM | 0.693 ± 0.022 |
| KKITSIHKKRER | 0.822 ± 0.12 |
| KKKDKKVKRRKV | 0.769 ± 0.031 |
| KKKEGRMKQIYE | 0.688 ± 0.0088 |
| KKKEKTSEEKKK | 0.701 ± 0.029 |
| KKKGDKVGTKEQ | 0.657 ± 0.048 |
| KKKIKIQPRTEN | 0.7302 ± 0.0065 |
| KKKKDKEIIHKE | 0.758 ± 0.12 |
| KKKKEEKQKGLK | 0.69 ± 0.028 |
| KKKKEISNEAKQ | 0.672 ± 0.093 |
| KKKKFQDQKIDE | 0.629 ± 0.0068 |
| KKKKKEKNKIKI | 0.689 ± 0.14 |
| KKKKKGASEDNI | 0.786 ± 0.1 |
| KKKKKKKEKKAK | 0.644 ± 0.042 |
| KKKKKKKEYKKK | 0.752 ± 0.038 |
| KKKKKKKKKNNK | 0.6851 ± 0.0035 |
| KKKKKKKYKQRK | 0.706 ± 0.05 |
| KKKKKKTNKKKE | 0.758 ± 0.065 |
| KKKKKKVKNTKE | 0.698 ± 0.047 |
| KKKKNKKKNKKK | 0.669 ± 0.011 |
| KKKKNKKKTKKT | 0.784 ± 0.17 |
| KKKNKKKEKKKN | 0.714 ± 0.049 |
| KKKNNEKLEEKK | 0.687 ± 0.0098 |
| KKKNNKRKAKNK | 0.6918 ± 0.0012 |
| KKKNQLSKVTKR | 0.702 ± 0.031 |

| Sequence | protein stability index |
| --- | --- |
| KKKRNSYMKGNR | 0.681 ± 0.1 |
| KKLAPHPLTTRV | 0.642 ± 0.078 |
| KKLKQTRRKKEN | 0.7296 ± 0.0068 |
| KKMSGNKLKNKN | 0.643 ± 0.013 |
| KKNAFIYKRRPR | 0.714 ± 0.04 |
| KKNHTQIKEVPR | 0.6943 ± 0.00099 |
| KKNHYKAICNRR | 0.619 ± 0.0075 |
| KKNICIKVENSY | 0.676 ± 0.031 |
| KKNKEKGEREKK | 0.615 ± 0.058 |
| KKNKGKGREVRI | 0.67 ± 0.049 |
| KKNKKKKEKKAK | 0.625 ± 0.025 |
| KKNKQEKPKKPK | 0.698 ± 0.0062 |
| KKNSTKKKKESW | 0.633 ± 0.029 |
| KKPHKTKGICYT | 0.673 ± 0.012 |
| KKQHTIKKKKKR | 0.734 ± 0.028 |
| KKQKKKQNKQKT | 0.731 ± 0.026 |
| KKQKPKVTSTKT | 0.712 ± 0.037 |
| KKQRKRKMTERG | 0.742 ± 0.11 |
| KKRKKDKRSQER | 0.671 ± 0.068 |
| KKRMDKIKDKKI | 0.713 ± 0.098 |
| KKRQNIAKSEDT | 0.701 ± 0.025 |
| KKRREKRTEKKQ | 0.661 ± 0.027 |
| KKSERRGQKDYE | 0.696 ± 0.028 |
| KKSGISSGPNDT | 0.689 ± 0.043 |
| KKSLNTKIQTRE | 0.707 ± 0.029 |

| Sequence | protein stability index |
| --- | --- |
| KKTDNGSYERGE | 0.701 ± 0.018 |
| KKTKKGINVEER | 0.662 ± 0.0097 |
| KKTKKKRTEPQP | 0.724 ± 0.068 |
| KKTQKKKKLIPQ | 0.7046 ± 0.0062 |
| KKVGHGLRERGQ | 0.628 ± 0.061 |
| KKVKKKRSKKNT | 0.66 ± 0.17 |
| KKYNNMRKHYVK | 0.701 ± 0.02 |
| KLFWYLDCKLLY | 0.579 ± 0.0073 |
| KLIVPCSPIRLS | 0.6929 ± 0.0043 |
| KLKIDKKKNTFE | 0.728 ± 0.047 |
| KLLLYNILSYWS | 0.56105 ± 0.00055 |
| KMILVGMKKSVV | 0.6502 ± 0.0026 |
| KMNKTEYINGMT | 0.652 ± 0.038 |
| KNEEKIDKIEEQ | 0.72 ± 0.09 |
| KNFGHQGDVCRR | 0.734 ± 0.037 |
| KNKKFKKDEKTR | 0.773 ± 0.059 |
| KNKNKKTPARYR | 0.692 ± 0.015 |
| KNNKIKHIKVKN | 0.679 ± 0.017 |
| KNPKKMKKVTTK | 0.694 ± 0.0091 |
| KNQRTLKSPQEV | 0.6387 ± 0.0055 |
| KNQTDRRKKIIN | 0.648 ± 0.039 |
| KNVVSVRWERNE | 0.635 ± 0.084 |
| KPKKKNPREKPV | 0.669 ± 0.064 |
| KPPPSISLSWLE | 0.716 ± 0.0024 |
| KPQFNLQYTVKI | 0.616 ± 0.025 |

| Sequence | protein stability index |
| --- | --- |
| KQHWIDDRNRIE | 0.716 ± 0.065 |
| KQKKKSQTKTRK | 0.718 ± 0.034 |
| KQKNKNNVKQPN | 0.693 ± 0.012 |
| KQKRQLPRKNET | 0.639 ± 0.0092 |
| KQLKKKKQIRRK | 0.728 ± 0.13 |
| KQNQKKREITAG | 0.664 ± 0.055 |
| KREEKKTKRKKK | 0.712 ± 0.048 |
| KRGKRKEGGKAR | 0.687 ± 0.065 |
| KRIRTKLKKTQK | 0.695 ± 0.011 |
| KRKKEKNQPTKR | 0.6972 ± 0.0044 |
| KRKKNKEENQTE | 0.708 ± 0.016 |
| KRLEFLTHAVFK | 0.7281 ± 0.0025 |
| KRSVSIESMTQA | 0.699 ± 0.011 |
| KSASIGTTLRNL | 0.699 ± 0.022 |
| KSDKVYKQKPNT | 0.705 ± 0.11 |
| KSIVAQGRLKPR | 0.685 ± 0.026 |
| KSKTYIKKTRKQ | 0.744 ± 0.031 |
| KSRRTTMINIRC | 0.668 ± 0.016 |
| KTALWQPNCKTD | 0.655 ± 0.011 |
| KTFGHQYVFIRK | 0.689 ± 0.013 |
| KTKKRHKENRKE | 0.791 ± 0.067 |
